Laboratory results taken from US20220306695A1, “COMPSTATIN ANALOGUES AND THEIR MEDICAL USES” (priority 2019, published 2022).
Starred links: 1 amine or outer side, 2 acyl side, 3 side chain; linkers in the order of their positions; H or OH if unused. Positions of bridges follow the written chain, without caps; N, C: chain ends. Non-standard residues stand in square brackets, D forms with d. Groups on a side chain read outwards from the residue. *: point of attachment. Trp(1-Me) = Cn1cc(C[C@H](N)C(=O)O)c2ccccc21; C18 diacid = O=C(O)CCCCCCCCCCCCCCCCC(=O)*; γGlu = O=C(O)[C@H](CCC(=O)[*:2])N[*:1]; hCys = N[C@@H](CCS)C(=O)O; AEEA = NCCOCCOCC(=O)O; Sar = CNCC(=O)O

Molecular target: Human C3 (human, UniProt P01024 23-1663)
Assay: cell-based or functional assay

Sequence of Human C3 (P01024 23-1663 limits assumed): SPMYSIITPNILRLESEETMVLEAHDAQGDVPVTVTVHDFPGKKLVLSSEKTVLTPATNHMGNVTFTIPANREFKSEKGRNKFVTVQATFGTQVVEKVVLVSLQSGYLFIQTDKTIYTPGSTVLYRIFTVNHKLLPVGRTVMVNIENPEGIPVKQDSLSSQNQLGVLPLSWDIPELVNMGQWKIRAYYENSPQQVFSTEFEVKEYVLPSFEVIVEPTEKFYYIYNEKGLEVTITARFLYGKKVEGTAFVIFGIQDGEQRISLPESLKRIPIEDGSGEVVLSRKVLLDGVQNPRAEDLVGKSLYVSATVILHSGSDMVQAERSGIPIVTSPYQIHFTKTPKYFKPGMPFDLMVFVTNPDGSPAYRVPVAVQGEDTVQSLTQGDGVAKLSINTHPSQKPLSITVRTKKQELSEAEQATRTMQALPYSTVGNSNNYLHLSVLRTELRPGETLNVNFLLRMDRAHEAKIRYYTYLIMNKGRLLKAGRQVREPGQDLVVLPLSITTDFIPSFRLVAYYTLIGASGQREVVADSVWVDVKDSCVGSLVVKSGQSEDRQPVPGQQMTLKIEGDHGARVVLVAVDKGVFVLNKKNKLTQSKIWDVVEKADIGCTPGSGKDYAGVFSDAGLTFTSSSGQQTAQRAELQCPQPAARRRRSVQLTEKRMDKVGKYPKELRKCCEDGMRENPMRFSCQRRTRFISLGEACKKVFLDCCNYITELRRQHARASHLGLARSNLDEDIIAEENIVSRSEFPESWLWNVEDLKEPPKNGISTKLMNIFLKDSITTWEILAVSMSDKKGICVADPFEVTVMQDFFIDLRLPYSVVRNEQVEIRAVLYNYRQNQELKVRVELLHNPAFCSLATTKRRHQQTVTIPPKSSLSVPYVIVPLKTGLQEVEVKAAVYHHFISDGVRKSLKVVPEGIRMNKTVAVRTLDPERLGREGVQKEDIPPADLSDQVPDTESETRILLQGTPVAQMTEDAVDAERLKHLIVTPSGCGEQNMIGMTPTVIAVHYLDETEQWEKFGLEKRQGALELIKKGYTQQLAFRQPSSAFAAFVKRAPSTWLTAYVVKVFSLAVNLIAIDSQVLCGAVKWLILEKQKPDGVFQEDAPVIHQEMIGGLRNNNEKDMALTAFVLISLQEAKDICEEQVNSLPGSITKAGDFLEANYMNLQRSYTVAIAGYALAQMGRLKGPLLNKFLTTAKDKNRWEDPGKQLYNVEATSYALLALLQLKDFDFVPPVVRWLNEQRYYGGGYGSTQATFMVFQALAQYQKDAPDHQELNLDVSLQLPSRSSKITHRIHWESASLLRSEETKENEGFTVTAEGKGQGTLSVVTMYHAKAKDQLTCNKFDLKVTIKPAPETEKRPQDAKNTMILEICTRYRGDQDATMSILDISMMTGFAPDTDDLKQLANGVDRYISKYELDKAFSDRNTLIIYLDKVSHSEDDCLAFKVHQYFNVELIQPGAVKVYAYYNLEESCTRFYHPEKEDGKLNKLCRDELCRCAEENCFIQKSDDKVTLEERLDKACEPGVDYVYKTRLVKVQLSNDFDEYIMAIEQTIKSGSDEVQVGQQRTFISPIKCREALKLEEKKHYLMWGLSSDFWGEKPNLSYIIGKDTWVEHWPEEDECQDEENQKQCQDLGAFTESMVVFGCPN

Row | Binder | IC50[nM], inhibition of hemolysis [nM]
1 | Ac-GEFAI[Trp(1-Me)]QEWGEHR[hCys][Sar]EGE[AEEA]ESK([γGlu-Gly-γGlu-C18 diacid])-NH2 (thioether 4-14; SMILES CC[C@H](C)[C@@H]1NC(=O)[C@@H](NC(=O)[C@H](Cc2ccccc2)NC(=O)[C@H](CCC(=O)O)NC(=O)CNC(C)=O)CSCC[C@@H](C(=O)N(C)CC(=O)N[C@@H](CCC(=O)O)C(=O)NCC(=O)N[C@@H](CCC(=O)O)C(=O)NCCOCCOCC(=O)N[C@@H](CCC(=O)O)C(=O)N[C@@H](CO)C(=O)N[C@@H](CCCCNC(=O)CC[C@H](NC(=O)CNC(=O)CC[C@H](NC(=O)CCCCCCCCCCCCCCCCC(=O)O)C(=O)O)C(=O)O)C(N)=O)NC(=O)[C@H](CCCNC(=N)N)NC(=O)[C@H](Cc2c[nH]cn2)NC(=O)[C@H](CCC(=O)O)NC(=O)CNC(=O)[C@H](Cc2c[nH]c3ccccc23)NC(=O)[C@H](CCC(=O)O)NC(=O)[C@H](CCC(N)=O)NC(=O)[C@H](Cc2cn(C)c3ccccc23)NC1=O) [Compound 155] | < 100
2 | Ac-SEFCI[Trp(1-Me)]QDWGEHRCTGAESK([γGlu-Gly-γGlu-15‑carboxy‑hexadecanoyl])-NH2 (disulfide 4-14) [Compound 135] | < 100
3 | Ac-SEFCI[Trp(1-Me)]QDWGEHRCTEGE[8‑aminooctanoyl]K([γGlu-Gly-γGlu-C18 diacid])-NH2 (disulfide 4-14) [Compound 136] | < 100
4 | Ac-SEFCI[Trp(1-Me)]QDWGEHRC[Sar]EK[γGlu]GGGK([γGlu-Gly-γGlu-C18 diacid])-NH2 (disulfide 4-14; SMILES CC[C@H](C)[C@@H]1NC(=O)[C@@H](NC(=O)[C@H](Cc2ccccc2)NC(=O)[C@H](CCC(=O)O)NC(=O)[C@H](CO)NC(C)=O)CSSC[C@@H](C(=O)N(C)CC(=O)N[C@@H](CCC(=O)O)C(=O)N[C@@H](CCCCN)C(=O)N[C@@H](CCC(=O)NCC(=O)NCC(=O)NCC(=O)N[C@@H](CCCCNC(=O)CC[C@H](NC(=O)CNC(=O)CC[C@H](NC(=O)CCCCCCCCCCCCCCCCC(=O)O)C(=O)O)C(=O)O)C(N)=O)C(=O)O)NC(=O)[C@H](CCCNC(=N)N)NC(=O)[C@H](Cc2c[nH]cn2)NC(=O)[C@H](CCC(=O)O)NC(=O)CNC(=O)[C@H](Cc2c[nH]c3ccccc23)NC(=O)[C@H](CC(=O)O)NC(=O)[C@H](CCC(N)=O)NC(=O)[C@H](Cc2cn(C)c3ccccc23)NC1=O) [Compound 132] | < 100
5 | Ac-SEFCI[Trp(1-Me)]QDWGEHRCTEGE[8‑aminooctanoyl]EK([γGlu-Gly-γGlu-C18 diacid])-NH2 (disulfide 4-14) [Compound 137] | < 100
6 | Ac-EFCI[Trp(1-Me)]QDWGEHRCEGEK([γGlu-Gly-γGlu-C18 diacid])-NH2 (disulfide 3-13; SMILES CC[C@H](C)[C@@H]1NC(=O)[C@@H](NC(=O)[C@H](Cc2ccccc2)NC(=O)[C@H](CCC(=O)O)NC(C)=O)CSSC[C@@H](C(=O)N[C@@H](CCC(=O)O)C(=O)NCC(=O)N[C@@H](CCC(=O)O)C(=O)N[C@@H](CCCCNC(=O)CC[C@H](NC(=O)CNC(=O)CC[C@H](NC(=O)CCCCCCCCCCCCCCCCC(=O)O)C(=O)O)C(=O)O)C(N)=O)NC(=O)[C@H](CCCNC(=N)N)NC(=O)[C@H](Cc2c[nH]cn2)NC(=O)[C@H](CCC(=O)O)NC(=O)CNC(=O)[C@H](Cc2c[nH]c3ccccc23)NC(=O)[C@H](CC(=O)O)NC(=O)[C@H](CCC(N)=O)NC(=O)[C@H](Cc2cn(C)c3ccccc23)NC1=O) [Compound 134] | < 100
7 | Ac-EFCI[Trp(1-Me)]QDWGEHRC[Sar]EA[AEEA][AEEA]K([γGlu-Gly-γGlu-C18 diacid])-NH2 (disulfide 3-13; SMILES CC[C@H](C)[C@@H]1NC(=O)[C@@H](NC(=O)[C@H](Cc2ccccc2)NC(=O)[C@H](CCC(=O)O)NC(C)=O)CSSC[C@@H](C(=O)N(C)CC(=O)N[C@@H](CCC(=O)O)C(=O)N[C@@H](C)C(=O)NCCOCCOCC(=O)NCCOCCOCC(=O)N[C@@H](CCCCNC(=O)CC[C@H](NC(=O)CNC(=O)CC[C@H](NC(=O)CCCCCCCCCCCCCCCCC(=O)O)C(=O)O)C(=O)O)C(N)=O)NC(=O)[C@H](CCCNC(=N)N)NC(=O)[C@H](Cc2c[nH]cn2)NC(=O)[C@H](CCC(=O)O)NC(=O)CNC(=O)[C@H](Cc2c[nH]c3ccccc23)NC(=O)[C@H](CC(=O)O)NC(=O)[C@H](CCC(N)=O)NC(=O)[C@H](Cc2cn(C)c3ccccc23)NC1=O) [Compound 145] | < 100
8 | Ac-SEFCI[Trp(1-Me)]QDWGEHRC[Sar]EGE[AEEA]K([γGlu-Gly-γGlu-C18 diacid])-NH2 (disulfide 4-14) [Compound 138] | < 100
9 | Ac-SEFCI[Trp(1-Me)]QDWGEHRC[Sar]EGE[AEEA][AEEA][AEEA]K([γGlu-Gly-γGlu-C18 diacid])-NH2 (disulfide 4-14; SMILES CC[C@H](C)[C@@H]1NC(=O)[C@@H](NC(=O)[C@H](Cc2ccccc2)NC(=O)[C@H](CCC(=O)O)NC(=O)[C@H](CO)NC(C)=O)CSSC[C@@H](C(=O)N(C)CC(=O)N[C@@H](CCC(=O)O)C(=O)NCC(=O)N[C@@H](CCC(=O)O)C(=O)NCCOCCOCC(=O)NCCOCCOCC(=O)NCCOCCOCC(=O)N[C@@H](CCCCNC(=O)CC[C@H](NC(=O)CNC(=O)CC[C@H](NC(=O)CCCCCCCCCCCCCCCCC(=O)O)C(=O)O)C(=O)O)C(N)=O)NC(=O)[C@H](CCCNC(=N)N)NC(=O)[C@H](Cc2c[nH]cn2)NC(=O)[C@H](CCC(=O)O)NC(=O)CNC(=O)[C@H](Cc2c[nH]c3ccccc23)NC(=O)[C@H](CC(=O)O)NC(=O)[C@H](CCC(N)=O)NC(=O)[C@H](Cc2cn(C)c3ccccc23)NC1=O) [Compound 143] | < 100
10 | Ac-SEFCI[Trp(1-Me)]QDWGEHRCTEK[γGlu]GGGK([γGlu-Gly-γGlu-C18 diacid])-NH2 (disulfide 4-14; SMILES CC[C@H](C)[C@@H]1NC(=O)[C@@H](NC(=O)[C@H](Cc2ccccc2)NC(=O)[C@H](CCC(=O)O)NC(=O)[C@H](CO)NC(C)=O)CSSC[C@@H](C(=O)N[C@H](C(=O)N[C@@H](CCC(=O)O)C(=O)N[C@@H](CCCCN)C(=O)N[C@@H](CCC(=O)NCC(=O)NCC(=O)NCC(=O)N[C@@H](CCCCNC(=O)CC[C@H](NC(=O)CNC(=O)CC[C@H](NC(=O)CCCCCCCCCCCCCCCCC(=O)O)C(=O)O)C(=O)O)C(N)=O)C(=O)O)[C@@H](C)O)NC(=O)[C@H](CCCNC(=N)N)NC(=O)[C@H](Cc2c[nH]cn2)NC(=O)[C@H](CCC(=O)O)NC(=O)CNC(=O)[C@H](Cc2c[nH]c3ccccc23)NC(=O)[C@H](CC(=O)O)NC(=O)[C@H](CCC(N)=O)NC(=O)[C@H](Cc2cn(C)c3ccccc23)NC1=O) [Compound 133] | < 100
